From the supplement of paper PMC11246515
± gives the standard deviation of the averaged measurements.

Test: total protein half-life in vivo (active degradation + dilution); higher = more stable protein
[1] = E. coli NCM3722 delta-smpB, growth: N-lim chemostat, doubling time 6 h
[2] = wild type E. coli NCM3722, growth: N-lim chemostat, doubling time 6 h
[3] = wild type E. coli NCM3722, growth: N-lim chemostat, doubling time 12 h
[4] = E. coli NCM3722 delta-clpP delta-lon delta-hslV, growth: N-lim chemostat, doubling time 6 h
[5] = E. coli NCM3722 delta-clpP, growth: N-lim chemostat, doubling time 6 h
[6] = E. coli NCM3722 delta-hslV, growth: N-lim chemostat, doubling time 6 h
[7] = E. coli NCM3722 delta-lon, growth: N-lim chemostat, doubling time 6 h
[8] = wild type E. coli NCM3722, growth: C-lim chemostat, doubling time 3 h
[9] = wild type E. coli NCM3722, growth: C-lim chemostat, doubling time 6 h
[10] = wild type E. coli NCM3722, growth: C-lim chemostat, doubling time 12 h
[11] = wild type E. coli NCM3722, growth: P-lim chemostat, doubling time 6 h
[12] = wild type E. coli NCM3722, growth: P-lim chemostat, doubling time 12 h

| Sequence | total protein half-life in vivo [1] [h] | total protein half-life in vivo [2] [h] | total protein half-life in vivo [3] [h] | total protein half-life in vivo [4] [h] | total protein half-life in vivo [5] [h] | total protein half-life in vivo [6] [h] | total protein half-life in vivo [7] [h] | total protein half-life in vivo [8] [h] | total protein half-life in vivo [9] [h] | total protein half-life in vivo [10] [h] | total protein half-life in vivo [11] [h] | total protein half-life in vivo [12] [h] |
| --- | --- | --- | --- | --- | --- | --- | --- | --- | --- | --- | --- | --- |
| MMLSEETSAVRPQKQTRFNGAKLVWMLKGSPLTVTSAVIIVLMLLMMIFSPWLATHDPNAIDLTARLLPPSAAHWFGTDEVGRDLFSRVLVGSQQSILAGLVVVAIAGMIGSLLGCLSGVLGGRADAIIMRIMDIMLSIPSLVLTMALAAALGPSLFNAMLAIAIVRIPFYVRLARGQALVVRQYTYVQAAKTFGASRWHLINWHILRNSLPPLIVQASLDIGSAILMAATLGFIGLGAQQPSAEWGAMVANGRNYVLDQWWYCAFPGAAILLTAVGFNLFGDGIRDLLDPKAGGKQS | 4.22 ± 0.1 | 4.15 | 6.94 | – | – | – | – | – | – | – | – | – |
| MKQLTILGSTGSIGCSTLDVVRHNPEHFRVVALVAGKNVTRMVEQCLEFSPRYAVMDDEASAKLLKTMLQQQGSRTEVLSGQQAACDMAALEDVDQVMAAIVGAAGLLPTLAAIRAGKTILLANKESLVTCGRLFMDAVKQSKAQLLPVDSEHNAIFQSLPQPIQHNLGYADLEQNGVVSILLTGSGGPFRETPLRDLATMTPDQACRHPNWSMGRKISVDSATMMNKGLEYIEARWLFNASASQMEVLIHPQSVIHSMVRYQDGSVLAQLGEPDMRTPIAHTMAWPNRVNSGVKPLDFCKLSALTFAAPDYDRYPCLKLAMEAFEQGQAATTALNAANEITVAAFLAQQIRFTDIAALNLSVLEKMDMREPQCVDDVLSVDANAREVARKEVMRLAS | 3.84 ± 0.34 | 3.64 ± 0.13 | 5.81 ± 0.34 | 4.22 ± 0.36 | 3.69 ± 0.044 | 4.05 ± 0.23 | 3.93 ± 0.36 | 2.81 ± 0.21 | 5.32 ± 0.24 | 9.19 ± 0.66 | 5.88 ± 0.068 | 9.74 ± 0.61 |
| MFNRIRISTTLFLILILCGILQIGSNGMSFWAFRDDLQRLNQVEQSNQQRAALAQTRAVMLQASTALNKAGTLTALSYPADDIKTLMTTARASLTQSTTLFKSFMAMTAGNEHVRGLQKETEKSFARWHNDLEHQATWLESNQLSDFLTAPVQGSQNAFDVNFEAWQLEINHVLEAASAQSQRNYQISALVFISMIIVAAIYISSALWWTRKMIVQPLAIIGSHFDSIAAGNLARPIAVYGRNEITAIFASLKTMQQALRGTVSDVRKGSQEMHIGIAEIVAGNNDLSSRTEQQAASLAQTAASMEQLTATVGQNADNARQASELAKNAATTAQAGGVQVSTMTHTMQEIATSSQKIGDIISVIDGIAFQTNILALNAAVEAARAGEQGRGFAVVAGEVRNLASRSAQAAKEIKGLIEESVNRVQQGSKLVNNAAATMIDIVSSVTRVNDIMGEIASASEEQQRGIEQVAQAVSQMDQVTQQNASLVEEAAVATEQLANQADHLSSRVAVFTLEEHEVARHESVQLQIAPVVS | > 8 | – | – | – | 6.16 | – | – | 1.87 ± 0.38 | 3.01 ± 0.33 | 4.13 ± 0.71 | – | – |
| MKFVDEASILVVAGDGGNGCVSFRREKYIPKGGPDGGDGGDGGDVWMEADENLNTLIDYRFEKSFRAERGQNGASRDCTGKRGKDVTIKVPVGTRVIDQGTGETMGDMTKHGQRLLVAKGGWHGLGNTRFKSSVNRTPRQKTNGTPGDKRELLLELMLLADVGMLGMPNAGKSTFIRAVSAAKPKVADYPFTTLVPSLGVVRMDNEKSFVVADIPGLIEGAAEGAGLGIRFLKHLERCRVLLHLIDIDPIDGTDPVENARIIISELEKYSQDLATKPRWLVFNKIDLLDKVEAEEKAKAIAEALGWEDKYYLISAASGLGVKDLCWDVMTFIIENPVVQAEEAKQPEKVEFMWDDYHRQQLEEIAEEDDEDWDDDWDEDDEEGVEFIYKR | 2.185 ± 0.021 | 2.39 ± 0.11 | 2.82 ± 0.035 | 5.72 ± 1.1 | 4.17 ± 0.15 | 2.39 ± 0.18 | 2.44 ± 0.097 | 2.27 ± 0.1 | 3.58 ± 0.14 | 5.35 ± 0.73 | 3.04 ± 0.22 | 5.89 ± 0.39 |
| MSHWATFKQTATNLWVTLRHDILALAVFLNGLLIFKTIYGMSVNLLDIFHIKAFSELDLSLLANAPLFMLGVFLVLNSIGLLFRAKLAWAISIILLLIALIYTLHFYPWLKFSIGFCIFTLVFLLILRKDFSHSSAAAGTIFAFISFTTLLFYSTYGALYLSEGFNPRIESLMTAFYFSIETMSTVGYGDIVPVSESARLFTISVIISGITVFATSMTSIFGPLIRGGFNKLVKGNNHTMHRKDHFIVCGHSILAINTILQLNQRGQNVTVISNLPEDDIKQLEQRLGDNADVIPGDSNDSSVLKKAGIDRCRAILALSDNDADNAFVVLSAKDMSSDVKTVLAVSDSKNLNKIKMVHPDIILSPQLFGSEILARVLNGEEINNDMLVSMLLNSGHGIFSDNDELETKADSKESAQK | 4.7 ± 0.18 | 4.54 ± 0.47 | 9.01 ± 0.45 | 5.54 ± 0.5 | 5.47 | – | 5.25 ± 0.22 | 2.43 ± 0.039 | 4.78 ± 0.82 | 7.86 | – | 9.87 ± 0.24 |
| MAEKRNIFLVGPMGAGKSTIGRQLAQQLNMEFYDSDQEIEKRTGADVGWVFDLEGEEGFRDREEKVINELTEKQGIVLATGGGSVKSRETRNRLSARGVVVYLETTIEKQLARTQRDKKRPLLHVETPPREVLEALANERNPLYEEIADVTIRTDDQSAKVVANQIIHMLESN [P0A6D7] | 2.69 ± 0.079 | 2.26 ± 0.05 | 3.61 ± 0.34 | 4.84 ± 0.069 | 3.45 ± 0.24 | 2.76 ± 0.24 | 4.2 ± 0.64 | 2.24 ± 0.27 | 3.989 ± 0.026 | 5.31 ± 0.22 | 2.62 ± 0.12 | 4.5 ± 0.26 |
